Legend:
[1] = tested on: Lgr5+ stem cells in small intestinal crypts; experiment: Small intestinal crypt culture from Lgr5-GFP mice in Matrigel: cell proliferation and Lgr5-GFP expression; format: cell-based, mouse; conditions: for requirement of growth factor to maintain self-renewal of Lgr5+ stem cells: crypts 6 days in the CV condition (CHIR 3 μM, VPA 1 mM)
Description: Crypts and single Lgr5-GFP cells were isolated as previously described (Sato et al., 2009). Briefly, the proximal half of the small intestine was harvested, opened longitudinally, and washed with cold PBS to remove luminal content. The tissue was then cut into 2-4 mm pieces with scissors and further washed 5-10 times with cold PBS by pipetting up and down using a 10-ml pipette. Tissue fragments were incubated with 2 mM EDTA in PBS for 30 min on ice. After removal of EDTA, tissue fragments were washed with PBS to release crypts. Supernatant fractions enriched in crypts were collected, passed through a 70 μm cell strainer and centrifuged at 300 g for 5 minutes. The cell pellet was re-suspended with cell culture media without growth factors and centrifuged at 150 g to remove single cells. Crypts were then cultured or used for single cell isolation. To obtain single cells, crypts were incubated in culture medium for 45 minutes at 37° C. and triturated with a glass pipette. Dissociated cells were passed through 20 μm cell strainer, negative stained with propidium iodide and single viable GFP-high cells were sorted by flow cytometry (FACS Aria, BD) as previously described (Sato et al., 2009). Small intestinal crypts isolated from Lgr5-EGFP-ires-CreERT2 mice were embedded in Matrigel and cultured under conventional culture conditions in the presence of EGF, Noggin and R-spondin 1 (collectively referred to as ENR) leading to organoids with crypts and villus-like domains and GFP^+ cells at the crypt tips, consistent with previous reports (Sato et al., 2009). Isolated crypts or single cells were cultured as previously described (Sato et al., 2009) with minimal modification. Briefly, crypts or single cells were entrapped in Matrigel and plated at the center of wells in a 24-well plate. After polymerization of Matrigel (growth factor reduced; BD Bioscience), 500 μl of culture medium (Advanced DMEM/F12 (Life Technologies)) was added containing growth factors including EGF (50 ng/ml, Life Technologies), Noggin (100 ng/ml, Peprotech) and R-spondin 1 (500 ng/ml, R&D) and small molecules including CHIR99021 (3 μM, Stemgent) and Valproic Acid (1 mM, Sigma-Aldrich). For comparison of different culture conditions, small molecules or growth factors were added to freshly isolated crypts immediately after plating in Matrigel to test the ability to minimize potential differentiation of the ISC within the crypts and thus sustain crypt cultures. Cell culture media was changed every other day. For single cell culture, cells were embedded in Matrigel containing Jagged-1 peptide (1 μM; AnaSpec) and Y-27632 (10 μM; Tocris) was added for the first 2 days. Cells were passaged either as cell colonies as previously described (Sato et al., 2009) or as single cells. […]

[2] = tested on: Lgr5+ stem/progenitor cells derived from the mouse inner ear; experiment: Culture of inner ear (cochlear) Lgr5-GFP epithelial cells in Matrigel; format: cell-based; conditions: 8 day cultures; added to EGF+CV or to the EGF+bFGF combination (FIG. 14D, 14E)
Description: The same culture condition (EGF, Noggin, R-spondin1, or “ENR”) as used in Lgr5+ small intestinal stem cell cultures was first established.
Isolated organ of Corti from Lgr5-GFP mice were dissociated into single cells using accutase and cultured in multiple combinations of soluble factors and small molecules in Matrigel for 8 days. The resulting cultures were further dissociated into single cells and analyzed using FACS. […] In addition, the combination of EGF, bFGF and IGF-1 (designated as EFI) improved cell proliferation and GFP expression compared with the ENR condition (FIG. 14A-14C).
To further investigate the effects of individual growth factors when combined with CHIR and VPA, growth factors including Mitogenic growth factors (EGF, bFGF and IGF-1) as well as the Wnt agonist R-spondin 1 in combination with CHIR and VPA were tested.

B1: R-spondin 1: agent that binds to the LGR5 receptor, Wnt agonist (protein, UniProt Q2MKA7 21-263, looked up)
R-spondin-1: SRGIKGKRQRRISAEGSQACAKGCELCSEVNGCLKCSPKLFILLERNDIRQVGVCLPSCPPGYFDARNPDMNKCIKCKIEHCEACFSHNFCTKCKEGLYLHKGRCYPACPEGSSAANGTMECSSPAQCEMSEWSPWGPCSKKQQLCGFRRGSEERTRRVLHAPVGDHAACSDTKETRRCTVRRVPCPEGQKRRKGGQGRRENANRNLARKESKEAGAGSRRRKGQQQQQQQGTVGPLTSAGPA
Question: With B1 as the molecule, how does the “requirement of growth factor to maintain self-renewal of Lgr5+ stem cells” value [1] read?
Answer: still required

Question: What about the “GFP expression on addition of a growth factor” value [2] of the same molecule?
Answer: slightly increased

B2: Noggin: inhibitor of Bone Morphogenic Proteins (protein, UniProt Q13253 28-232, looked up)
Noggin: QHYLHIRPAPSDNLPLVDLIEHPDPIFDPKEKDLNETLLRSLLGGHYDPGFMATSPPEDRPGGGGGAAGGAEDLAELDQLLRQRPSGAMPSEIKGLEFSEGLAQGKKQRLSKKLRRKLQMWLWSQTFCPVLYAWNDLGSRFWPRYVKVGSCFSKRSCSVPEGMVCKPSKSVHLTVLRWRCQRRGGQRCGWIPIQYPIISECKCSC
Question: With B2 as the molecule, how does the “requirement of growth factor to maintain self-renewal of Lgr5+ stem cells” value [1] read?
Answer: still required

B3: R-Spondin 2: agent that binds to the LGR5 receptor (protein, UniProt Q6UXX9 22-243, looked up)
R-spondin-2: QGNRWRRSKRASYVSNPICKGCLSCSKDNGCSRCQQKLFFFLRREGMRQYGECLHSCPSGYYGHRAPDMNRCARCRIENCDSCFSKDFCTKCKVGFYLHRGRCFDECPDGFAPLEETMECVEGCEVGHWSEWGTCSRNNRTCGFKWGLETRTRQIVKKPVKDTILCPTIAESRRCKMTMRHCPGGKRTPKAKEKRNKKKKRKLIERAQEQHSVFLATDRANQ
Question: With B3 as the molecule, how does the “organoid formation (number of organoids formed at day 5)” value ([1]; ENR condition, R-spondin 2 compared to R-spondin 1 at multiple concentrations) read?
Answer: better efficacy at lower concentrations

B4: Wnt3a: Wnt pathway activator protein (protein, UniProt P56704 19-352, looked up)
Protein Wnt-3a: SYPIWWSLAVGPQYSSLGSQPILCASIPGLVPKQLRFCRNYVEIMPSVAEGIKIGIQECQHQFRGRRWNCTTVHDSLAIFGPVLDKATRESAFVHAIASAGVAFAVTRSCAEGTAAICGCSSRHQGSPGKGWKWGGCSEDIEFGGMVSREFADARENRPDARSAMNRHNNEAGRQAIASHMHLKCKCHGLSGSCEVKTCWWSQPDFRAIGDFLKDKYDSASEMVVEKHRESRGWVETLRPRYTYFKVPTERDLVYYEASPNFCEPNPETGSFGTRDRTCNVSSHGIDGCDLLCCGRGHNARAERRREKCRCVFHWCCYVSCQECTRVYDVHTCK
Question: Which “cell proliferation of crypt cells (organoid size and cell numbers)” value ([1]; crypts cultured 6 days, agent added to ENR condition, compared to ENR) does the source give for B4 here?
Answer: increased crypt proliferation
